# Reference: patent US20210038739A1 (JCR PHARMACEUTICALS, published 2021)
# T1: recombinant monkey TfR extracellular region (Macaca fascicularis) with N-terminal histidine tag (Sino … (Macaca fascicularis (crab-eating …, UniProt Q5RDH6 89-760 (Pongo abelii entry))))
# T1 construct: also called r monkey TfR; r monkey TfR-ECD (Histag); not shown: Histidine tag at the N-terminus
# T1 chain: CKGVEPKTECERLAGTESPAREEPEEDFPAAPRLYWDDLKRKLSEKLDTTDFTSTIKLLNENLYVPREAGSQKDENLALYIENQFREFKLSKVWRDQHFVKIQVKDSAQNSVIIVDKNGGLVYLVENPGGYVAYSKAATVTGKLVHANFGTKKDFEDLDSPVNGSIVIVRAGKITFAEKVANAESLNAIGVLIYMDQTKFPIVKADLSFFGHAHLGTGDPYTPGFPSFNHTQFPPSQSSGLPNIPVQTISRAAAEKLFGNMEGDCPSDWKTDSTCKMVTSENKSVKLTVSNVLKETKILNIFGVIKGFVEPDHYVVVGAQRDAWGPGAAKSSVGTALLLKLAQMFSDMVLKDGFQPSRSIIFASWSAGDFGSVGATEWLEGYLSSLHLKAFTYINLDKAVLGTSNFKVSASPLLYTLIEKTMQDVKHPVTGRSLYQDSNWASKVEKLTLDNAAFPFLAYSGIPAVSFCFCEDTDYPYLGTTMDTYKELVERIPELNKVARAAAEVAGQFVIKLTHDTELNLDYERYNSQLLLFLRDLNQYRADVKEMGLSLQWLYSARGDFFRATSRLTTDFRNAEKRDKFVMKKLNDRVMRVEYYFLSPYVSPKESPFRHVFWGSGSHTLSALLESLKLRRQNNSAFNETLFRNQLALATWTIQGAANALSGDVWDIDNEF
# How the values were obtained:
# [1] = target: T2, recombinant human TfR extracellular region with N-terminal histidine tag (Sino Biological Inc.) (human, UniProt P02786 89-760); assay: BLI (Octet RED96) by the method of Example 7
# T2 construct: also called r human TfR; r human TfR-ECD (Histag); not shown: Histidine tag at the N-terminus
# [2] = target: T1, recombinant monkey TfR extracellular …; assay: BLI (Octet RED96) by the method of Example 7
# [3] = target: T2, recombinant human TfR extracellular …; assay: BLI (Octet RED96), His-tagged TfR ECD loaded on Ni-NTA sensor, antibody in solution; human TfR
# Protocol: (§1) Purified anti-hTfR antibody No. 3 was diluted in two steps with HBS-P+ (10 mM HEPES containing 150 mM NaCl, 50 μM EDTA and 0.05% Surfactant P20), respectively, to prepare antibody solutions of 7 different concentrations, 0.78125 to 50 nM (0.117 to 7.5 μg/mL). These antibody solutions were used as sample solutions. The r human and r monkey TfRs were respectively diluted with HBS-P+ to prepare 25 pg/mL solutions, which were used as r human TfR-ECD (Histag) solution and r monkey TfR-ECD (Histag) solution, respectively.
# (§2) Each of the sample solutions prepared above by 2-fold dilution steps was added, 200 μL/well, to a 96-well plate, black (Greiner Bio-One Inc.). Each of the r human TfR-ECD (Histag) solution and the r monkey TfR-ECD (Histag) solutions prepared above was added, 200 μL/well, to predetermined wells. To respective wells for baseline, dissociation and washing were added HBS-P+, 200 μL/well. To wells for regeneration were added 10 mM Glycine-HCl (pH 1.7), 200 μL/well. To wells for activation was added 0.5 mM NiCl₂ solution, 200 μL/well. The plate and biosensor (Biosensor/Ni-NTA: ForteBio Inc., a division of Pall Corporation) were set in the prescribed positions of Octet RED96.
# (§3) The measurement was performed at 25 to 30° C.
# [4] = target: T1, recombinant monkey TfR extracellular …; assay: BLI (Octet RED96), His-tagged TfR ECD loaded on Ni-NTA sensor, antibody in solution; monkey TfR
# Protocol: as §1, §2, §3
Kd [1],Kd [2],Kd [3],Kd [4],Binder
≤ 1 pM,~1000 pM,,,"humanized anti-hTfR antibody No. 3 (antibody, human IgG4 S228P, kappa, V domains shown, The heavy chain is of IgG4 type; also called humanized antibody of anti-hTfR antibody No. 3) VH: EVQLVQSGAEVKKPGESLKISCKGSGYSFTNYWLGWVRQMPGKGLEWMGDIYPGGDYPTYSEKFKVQVTISADKSISTAYLQWSSLKASDTAMYYCARSGNYDEVAYWGQGTLVTVSS VL: DIVMTQTPLSLSVTPGQPASISCRSSQSLVHSNGNTYLHWYLQKPGQSPQLLIYKVSNRFSGVPDRFSGSGSGTDFTLKISRVEAEDVGVYYCSQSTHVPWTFGQGTKVEIKR"
,,≤ 1 pM,≤ 1 pM,"mouse anti-hTfR antibody No. 3 (antibody, V domains shown, Mouse hybridoma antibody; also called anti-hTfR No. 3; antibody of Clone 3 line) VH: EVQLQESGAELVRPGTSVKISCKASGYTFMNYWLGWVKQRPGHGLEWIGDIYPGGDYPTYSEKFKVKAILTADTSSSSVYLHLSSLTSEDSAVYFCARSGNYDEVAYWGQGTLVTVST VL: DIVMTQTTLSLPVSLGDQASISCRSSQSLVHSNGNTYLHWYLQKPGQSPKLLIYKVSNRFSGVPDRFSGSGSGTDFTLKISRVEAEDLGVFFCSQSTHVPWTFGGGTKLEIKR"
